# Assay results from US20100047928A1 (CANON, published 2010).
# Biological target: T1, Soluble hen egg-white lysozyme proteins (HEL; Seikagaku Corp. code No. 100940) (hen, UniProt P00698 19-147)
# T1 construct: Bought protein, soluble; also called HEL proteins; target substances
# Assay: sandwich on gold/glass slide: immobilised fusion, 500 nM HEL, FITC-labelled anti-HEL polyclonal antibodies, fluorescence microscopy
# Description: 200 μl of 500 nM HEL proteins is added dropwise as target substances to the neighborhood of the boundary region between the gold layer and the glass layer of the slide glass completely washed in the step (ii). The slide glass is covered with a cover glass. After reaction at room temperature for 30 minutes, the slide glass is washed with each buffer. Next, 1 ml of 100 nM FITC-labeled HEL polyclonal antibodies was spotted thereonto and incubated in a moisture chamber. Then, the slide glass is washed with each buffer. FITC fluorescence at 520 nm is observed with a fluorescence microscope.
# T1 sequence (P00698 19-147): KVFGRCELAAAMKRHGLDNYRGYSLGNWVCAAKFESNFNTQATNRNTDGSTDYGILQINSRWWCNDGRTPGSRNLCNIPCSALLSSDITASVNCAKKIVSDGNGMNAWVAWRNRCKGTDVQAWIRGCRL
binder,measurement,value
"fusion protein of HEL-binding scFv (HyHEL10), Au-binding peptide region and SiO2-binding peptide region (scFv, Secreted from E. coli by the pelB signal of pET-20b(+); In the assays it stood immobilised on a gold/glass substrate; also called target substance capturing body; sc-Fv-HyHEL10 fusion; not shown: His tag used for metal chelate purification (pET-20b(+) vector)) scFv: DIVLTQSPATLSVTPGNSVSLSCRASQSIGNNLHWYQQKSHESPRLLIKYASQSISGIPSRFSGSGSGTDFTLSINSVETEDFGMYFCQQSNSWPYTFGGGTKLEITAGGGGSGGGGSGGGGSDIQLQESGPSLVKPSQTLSLTCSVTGDSITSDYWSWIRKFPGNRLEYMGYVSYSGSTYYNPSLKSRISITRDTSKNQYYLDLNSVTTEDTATYYCANWDGDYWGQGTLVTVSAAGGGGSGGGGSGGGGSMHGKTQATSGTIQSMHGKTQATSGTIQSMHGKTQATSGTIQSMHSASGSGGGGSGGGSGGGSEGGGSEGGGSGGGSGSIPMHVHHKHPHVIPMHVHHKHPHV",binding result,binds
